Data published in EP4703382A1 (Kanglitai Biomedical (Qingdao) Co., Ltd., dated 2026).
Several values for one entry are separate records, joined by “and”; a condition that tells them apart may be missing. Equal values may be shown once. Read-outs that look alike come from different tables or passages of the source. Values belong to the binder of their own block, whether it stands above or below them.

Tests used:
[1] = molecular target: T1, human PDL1-Fc fusion protein (human); assay: ELISA, human PDL1-Fc coated 200 ng/well, anti-His HRP
T1 construct: also called human PDL1-Fc recombinant protein
T1 sequence (chain, as listed by the source limits assumed): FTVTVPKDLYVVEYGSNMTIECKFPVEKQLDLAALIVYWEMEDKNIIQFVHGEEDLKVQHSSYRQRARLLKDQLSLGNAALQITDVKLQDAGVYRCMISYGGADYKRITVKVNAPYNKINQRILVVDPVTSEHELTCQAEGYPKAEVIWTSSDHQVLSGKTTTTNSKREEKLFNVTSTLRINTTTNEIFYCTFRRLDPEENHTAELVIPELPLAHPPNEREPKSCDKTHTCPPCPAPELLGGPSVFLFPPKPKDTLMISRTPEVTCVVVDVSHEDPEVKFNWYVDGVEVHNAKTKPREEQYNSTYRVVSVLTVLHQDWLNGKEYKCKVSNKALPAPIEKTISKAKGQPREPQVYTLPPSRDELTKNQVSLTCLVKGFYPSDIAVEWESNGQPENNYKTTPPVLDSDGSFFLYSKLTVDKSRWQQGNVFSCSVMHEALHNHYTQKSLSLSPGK

[2] = molecular target: T1, human PDL1-Fc fusion protein; assay: as above; remark: listed apart in the source
[3] = molecular target: T1, human PDL1-Fc fusion protein; assay: BLI (ForteBIO Octet QKe), PDL1-Fc loaded, analyte 100 nM
[4] = molecular target: T2, human PD-L1 expressed on Raji cells (human, UniProt Q9NZQ7 19-290); assay: flow cytometry competition on Raji-PDL1 cells, competitor PD1-Fc
T2 construct: whole, on cells; also called Raji-PDL1; PDL1 protein expressed on Raji cells
T2 sequence (Q9NZQ7 19-290): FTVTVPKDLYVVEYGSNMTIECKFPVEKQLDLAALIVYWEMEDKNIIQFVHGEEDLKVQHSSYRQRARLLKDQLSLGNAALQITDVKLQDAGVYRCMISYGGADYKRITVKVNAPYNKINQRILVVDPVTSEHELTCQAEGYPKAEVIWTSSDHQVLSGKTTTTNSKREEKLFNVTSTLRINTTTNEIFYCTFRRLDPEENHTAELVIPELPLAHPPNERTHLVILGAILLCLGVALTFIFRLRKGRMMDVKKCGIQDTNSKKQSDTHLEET

[5] = molecular target: T3, recombinant protein PD-L1-His (human, UniProt Q9NZQ7 19-238); assay: competitive ELISA, PDL1-his coated, competitor PD1-Fc 50 µg/mL
T3 construct: also called PD-L1-his fusion protein; human PDL1-his protein
T3 sequence (Q9NZQ7 19-238 limits assumed): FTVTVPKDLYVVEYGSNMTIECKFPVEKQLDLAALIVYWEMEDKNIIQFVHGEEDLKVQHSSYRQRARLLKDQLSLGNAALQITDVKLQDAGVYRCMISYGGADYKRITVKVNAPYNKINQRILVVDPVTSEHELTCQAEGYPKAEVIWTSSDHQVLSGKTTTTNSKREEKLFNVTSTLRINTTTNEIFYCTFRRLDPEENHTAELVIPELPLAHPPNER

[6] = molecular target: T1, human PDL1-Fc fusion protein; assay: ELISA, human PDL1-Fc coated 200 ng/well, anti-His HRP; remark: listed apart in the source
[7] = molecular target: T1, human PDL1-Fc fusion protein; assay: as above; remark: listed apart in the source

B1: Fusion 2 (other, murine)
chain 1: RVIPVSGPARCLSQSRNLLKTTDDMVKTAREKLKHYSCTAEDIDHEDITRDQTSTLKTCLPLELHKNESCLATRETSSTTRGSCLPPQKTSLMMTLCLGSIYEDLKMYQTEFQAINAALQNHNHQQIILDKGMLVAIDELMQSLNHNGETLRQKPPVGEADPYRVKMKLCILLHAFSTRVVTINRVMGYLSSAHHHHHH
chain 2: MWELEKDVYVVEVDWTPDAPGETVNLTCDTPEEDDITWTSDQRHGVIGSGKTLTITVKEFLDAGQYTCHKGGETLSHSHLLLHKKENGIWSTEILKNFKNKTFLKCEAPNYSGRFTCSWLVQRNMDLKFNIKSSSSSPDSRAVTCGMASLSAEKVTLDQRDYEKYSVSCQEDVTCPTAEETLPIELALEARQQNKYENYSTSFFIRDIIKPDPPKNLQMKPLKNSQVEVSWEYPDSWSTPHSYFSLKFFVRIQRKKEKMKETEEGCNQKGAFLVEKTSTEVQCKGGNVCVQAQDRYYNSSCSKWACVPCRVRSGGGGSGGGGSGGGGSQVQLQESGGGLVQPGGSLTLSCAASGFTVSNSAVSWARQAPGKGLEWVSLIDSNRNTVYAQSVRGRFTISRDNVKNTVYLQMNSLKPEDTAVYYCAKGIWGSTLTGQGTQVTVSS
notes: PDL1-1 nanobody fused with murine IL-12; two plasmids co-transfected 1:1; also called mP35-6his + mP40-P1
EC50 [1]: 4.1 µg/mL and 54.3 nM

B2: Fusion 4 (other, murine)
chain 1: RVIPVSGPARCLSQSRNLLKTTDDMVKTAREKLKHYSCTAEDIDHEDITRDQTSTLKTCLPLELHKNESCLATRETSSTTRGSCLPPQKTSLMMTLCLGSIYEDLKMYQTEFQAINAALQNHNHQQIILDKGMLVAIDELMQSLNHNGETLRQKPPVGEADPYRVKMKLCILLHAFSTRVVTINRVMGYLSSAHHHHHH
chain 2: QVQLQESGGGLVQPGGSLTLSCAASGFTVSNSAVSWARQAPGKGLEWVSLIDSNRNTVYAQSVRGRFTISRDNVKNTVYLQMNSLKPEDTAVYYCAKGIWGSTLTGQGTQVTVSSGGGGSGGGGSGGGGSMWELEKDVYVVEVDWTPDAPGETVNLTCDTPEEDDITWTSDQRHGVIGSGKTLTITVKEFLDAGQYTCHKGGETLSHSHLLLHKKENGIWSTEILKNFKNKTFLKCEAPNYSGRFTCSWLVQRNMDLKFNIKSSSSSPDSRAVTCGMASLSAEKVTLDQRDYEKYSVSCQEDVTCPTAEETLPIELALEARQQNKYENYSTSFFIRDIIKPDPPKNLQMKPLKNSQVEVSWEYPDSWSTPHSYFSLKFFVRIQRKKEKMKETEEGCNQKGAFLVEKTSTEVQCKGGNVCVQAQDRYYNSSCSKWACVPCRVRS
notes: PDL1-1 nanobody fused with murine IL-12; two plasmids co-transfected 1:1; also called mP35-6his + P1-mP40
EC50 [1]: 0.75 µg/mL and 9.91 nM

B3: Fusion 1 (other, murine)
chain 1: RVIPVSGPARCLSQSRNLLKTTDDMVKTAREKLKHYSCTAEDIDHEDITRDQTSTLKTCLPLELHKNESCLATRETSSTTRGSCLPPQKTSLMMTLCLGSIYEDLKMYQTEFQAINAALQNHNHQQIILDKGMLVAIDELMQSLNHNGETLRQKPPVGEADPYRVKMKLCILLHAFSTRVVTINRVMGYLSSAGGGGSGGGGSGGGGSQVQLQESGGGLVQPGGSLTLSCAASGFTVSNSAVSWARQAPGKGLEWVSLIDSNRNTVYAQSVRGRFTISRDNVKNTVYLQMNSLKPEDTAVYYCAKGIWGSTLTGQGTQVTVSSHHHHHHHH
chain 2: MWELEKDVYVVEVDWTPDAPGETVNLTCDTPEEDDITWTSDQRHGVIGSGKTLTITVKEFLDAGQYTCHKGGETLSHSHLLLHKKENGIWSTEILKNFKNKTFLKCEAPNYSGRFTCSWLVQRNMDLKFNIKSSSSSPDSRAVTCGMASLSAEKVTLDQRDYEKYSVSCQEDVTCPTAEETLPIELALEARQQNKYENYSTSFFIRDIIKPDPPKNLQMKPLKNSQVEVSWEYPDSWSTPHSYFSLKFFVRIQRKKEKMKETEEGCNQKGAFLVEKTSTEVQCKGGNVCVQAQDRYYNSSCSKWACVPCRVRS
notes: PDL1-1 nanobody fused with murine IL-12; two plasmids co-transfected 1:1; also called mP35-P1-8his + mP40
EC50 [1]: 0.373 µg/mL and 4.93 nM

B4: Fusion 3 (other, murine)
chain 1: QVQLQESGGGLVQPGGSLTLSCAASGFTVSNSAVSWARQAPGKGLEWVSLIDSNRNTVYAQSVRGRFTISRDNVKNTVYLQMNSLKPEDTAVYYCAKGIWGSTLTGQGTQVTVSSGGGGSGGGGSGGGGSRVIPVSGPARCLSQSRNLLKTTDDMVKTAREKLKHYSCTAEDIDHEDITRDQTSTLKTCLPLELHKNESCLATRETSSTTRGSCLPPQKTSLMMTLCLGSIYEDLKMYQTEFQAINAALQNHNHQQIILDKGMLVAIDELMQSLNHNGETLRQKPPVGEADPYRVKMKLCILLHAFSTRVVTINRVMGYLSSAHHHHHHHH
chain 2: MWELEKDVYVVEVDWTPDAPGETVNLTCDTPEEDDITWTSDQRHGVIGSGKTLTITVKEFLDAGQYTCHKGGETLSHSHLLLHKKENGIWSTEILKNFKNKTFLKCEAPNYSGRFTCSWLVQRNMDLKFNIKSSSSSPDSRAVTCGMASLSAEKVTLDQRDYEKYSVSCQEDVTCPTAEETLPIELALEARQQNKYENYSTSFFIRDIIKPDPPKNLQMKPLKNSQVEVSWEYPDSWSTPHSYFSLKFFVRIQRKKEKMKETEEGCNQKGAFLVEKTSTEVQCKGGNVCVQAQDRYYNSSCSKWACVPCRVRS
notes: PDL1-1 nanobody fused with murine IL-12; two plasmids co-transfected 1:1; also called P1-mP35-8his + mP40
EC50 [1]: 0.251 µg/mL and 3.33 nM

B5: PDL1-1v15 (VHH)
VHH: QVQLVESGGGLVKPGGSLRLSCAASGFTVSNSAVSWARQAPGKGLEWVSLIDSNRNTVYAQSVRGRFTISRDNAKNTVYLQMNSLRAEDTAVYYCAKGIWGSTLWGQGTTVTVSS
notes: Humanized PDL1-1, His-tagged
EC50 [2]: 0.0432 µg/mL | Kd [3]: 10.8 nM

B6: PDL1-1v18 (VHH)
VHH: QVQLVESGGGLVKPGGSLRLSCAASGFTVSNSAVSWARQAPGKGLEWVSLIDSNRNTVYAQSVRGRFTISRDNAKNSVYLQMNSLRAEDTAVYYCAKGIWGSTLTGQGTTVTVSS
notes: Humanized PDL1-1, His-tagged
IC50 [4]: 0.694 µg/mL | IC50 [5]: 5.22 µg/mL | EC50 [6]: 0.0182 µg/mL | Kd [3]: 4.16 nM

B10: PDL1-1v8 (VHH)
VHH: EVQLLESGGGLVQPGGSLRLSCAASGFTVSNSAVSWARQAPGKGLEWVSLIDSNRNTVYAQSVRGRFTISRDNSKNTVYLQMNSLRAEDTAVYYCAKGIWGSTLTGQGTTVTVSS
notes: Humanized PDL1-1, His-tagged
EC50 [7]: 0.0108 µg/mL | IC50 [4]: 0.458 µg/mL | IC50 [5]: 5.58 µg/mL | Kd [3]: 5.9 nM

B11: PDL1-1v11 (VHH)
VHH: QVQLQESGGGLVKPGGSLRLSCAASGFTVSNSAVSWARQAPGKGLEWVSLIDSNRNTVYAQSVRGRFTISRDNAKNSVYLQMNSLRAEDTAVYYCAKGIWGSTLWGQGTTVTVSS
notes: Humanized PDL1-1, His-tagged
IC50 [4]: 2.48 µg/mL | IC50 [5]: 31.1 µg/mL | EC50 [2]: 0.02 µg/mL | Kd [3]: 5.86 nM

B12: PDL1-1v10 (VHH)
VHH: EVQLLESGGGLVQPGGSLRLSCAASGFTVSNSAVSWARQAPGKGLEWVSLIASNRNTVYAQSVRGRFTISRDNSKNTVYLQMNSLRAEDTAVYYCAKGIWGSTLWGQGTTVTVSS
notes: Humanized PDL1-1, His-tagged
EC50 [7]: ~110 µg/mL | Kd [3]: 30.5 nM

B16: PDL1-1v3 (VHH)
VHH: QVQLLESGGGLVQPGGSLRLSCAASGFTVSNSAVSWARQAPGKGLEWVSLIDSNRNTVYAQSVRGRFTISRDNSKNTVYLQMNSLRAEDTAVYYCAKGIWGSTLWGQGTTVTVSS
notes: Humanized PDL1-1, His-tagged
EC50 [7]: 0.0336 µg/mL | Kd [3]: 18.5 nM

B17: PDL1-1v6 (VHH)
VHH: EVQLLESGGGLVQPGGSLRLSCAASGFTVSNSAVSWARQAPGKGLEWVSLIDSNRNTVYAQSVRGRFTISRDNSKNTVYLQMNSLKAEDTAVYYCAKGIWGSTLWGQGTTVTVSS
notes: Humanized PDL1-1, His-tagged
EC50 [7]: 0.0505 µg/mL | Kd [3]: 22.1 nM

B19: PDL1-1v2 (VHH)
VHH: QVQLVESGGGLVKPGGSLRLSCAASGFTVSNSAVSWARQAPGKGLEWVSLIDSNRNTVYAQSVRGRFTISRDNAKNSVYLQMNSLRAEDTAVYYCAKGIWGSTLWGQGTTVTVSS
notes: Humanized PDL1-1, His-tagged
EC50 [6]: 0.0591 µg/mL | EC50 [2]: 0.0423 µg/mL | Kd [3]: 14.3 nM

Further lines, results first:

EC50 [2]: 0.0629 µg/mL | Kd [3]: 14.3 nM
B7: PDL1-1v16 (VHH)
VHH: QVQLVESGGGLVKPGGSLRLSCAASGFTVSNSAVSWARQAPGKGLEWVSLIDSNRNTVYAQSVRGRFTISRDNAKNSVYLQMNSLKAEDTAVYYCAKGIWGSTLWGQGTTVTVSS
notes: Humanized PDL1-1, His-tagged

IC50 [4]: 2.59 µg/mL | IC50 [5]: 18.8 µg/mL | EC50 [6]: 0.0484 µg/mL | Kd [3]: 9.86 nM
B8: PDL1-1v19 (VHH)
VHH: QVQLVESGGGLVKPGGSLRLSCAASGFTVSNSAVSWARQAPGKGLEWVSLIDSNRNTVYAQSVRGRFTISRDNAKNSVYLQMNSLRAEDTAVYYCAKGIWGSTLWGQGTQVTVSS
notes: Humanized PDL1-1, His-tagged

EC50 [6]: 1.24 µg/mL | Kd [3]: 389 nM
B9: PDL1-1v12 (VHH)
VHH: QVQLVESGGGLVQPGGSLRLSCAASGFTVSNSAVSWARQAPGKGLEWVSLIDSNRNTVYAQSVRGRFTISRDNAKNSVYLQMNSLRAEDTAVYYCAKGIWGSTLWGQGTTVTVSS
notes: Humanized PDL1-1, His-tagged

EC50 [6]: 0.875 µg/mL | Kd [3]: 32.5 nM
B13: PDL1-1v20 (VHH)
VHH: QVQLVESGGGLVKPGGSLRLSCAASGFTVSNSAVSWARQAPGKGLEWVSLIASNRNTVYAQSVRGRFTISRDNAKNSVYLQMNSLRAEDTAVYYCAKGIWGSTLWGQGTTVTVSS
notes: Humanized PDL1-1, His-tagged

EC50 [6]: 0.0664 µg/mL | Kd [3]: 10.2 nM
B14: PDL1-1v17 (VHH)
VHH: QVQLVESGGGLVKPGGSLRLSCAASGFTVSNSAVSWARQAPGKGLEWVSLIDSNRNTVYAQSVRGRFTISRDNAKNSVYLQMNSLRPEDTAVYYCAKGIWGSTLWGQGTTVTVSS
notes: Humanized PDL1-1, His-tagged

EC50 [6]: 0.0461 µg/mL | Kd [3]: 11.4 nM
B15: PDL1-1v13 (VHH)
VHH: QVQLVESGGGLVKPGGSLTLSCAASGFTVSNSAVSWARQAPGKGLEWVSLIDSNRNTVYAQSVRGRFTISRDNAKNSVYLQMNSLRAEDTAVYYCAKGIWGSTLWGQGTTVTVSS
notes: Humanized PDL1-1, His-tagged

IC50 [4]: 4.58 µg/mL | IC50 [5]: 37.1 µg/mL | EC50 [2]: 0.0342 µg/mL | Kd [3]: 7.37 nM
B18: PDL1-1v14 (VHH)
VHH: QVQLVESGGGLVKPGGSLRLSCAASGFTVSNSAVSWARQAPGKGLEWVSLIDSNRNTVYAQSVRGRFTISRDNVKNSVYLQMNSLRAEDTAVYYCAKGIWGSTLWGQGTTVTVSS
notes: Humanized PDL1-1, His-tagged
